In US20030013651A1 (BARNES JEWISH HOSPITAL, published 2003):

B1: GST-RANKL fusion protein (glutathione S-transferase fused N-terminally to murine RANKL residues 158-316) (ligand)
chain: KPEAQPFAHLTINAASIPSGSHKVTLSSWYHDRGWAKISNMTLSNGKLRVNQDGFYYLYANICFRHHETSGSVPTDYLQLMVYVVKTSIKIPSSHNLMKGGSTKNWSGNSEFHFYSINVGGFFKLRAGEEISIQVSNPSLLDPDQDATYFGAFKVQDID
notes: By size exclusion it is a polydisperse mixture of mono-trimeric (1 n) and oligomeric (2-100 n) units; also called oligomeric GST-RANKL; not shown: vector-encoded linker with protease site between GST and the SalI cloning site
B2: cleaved RANKL (murine RANKL residues 158-316 with GST removed by rhinovirus 3C protease) (ligand)
chain: B1 chain
notes: It migrated as a single trimeric species (1 n) in gel filtration; also called RANKL alone

Target: T1, RANK (Receptor Activator of NF-kappa B) on primary murine cells (murine, UniProt O35305 31-625)
T1 construct: whole, on cells; Endogenous receptor on the cells
T1 sequence (looked up): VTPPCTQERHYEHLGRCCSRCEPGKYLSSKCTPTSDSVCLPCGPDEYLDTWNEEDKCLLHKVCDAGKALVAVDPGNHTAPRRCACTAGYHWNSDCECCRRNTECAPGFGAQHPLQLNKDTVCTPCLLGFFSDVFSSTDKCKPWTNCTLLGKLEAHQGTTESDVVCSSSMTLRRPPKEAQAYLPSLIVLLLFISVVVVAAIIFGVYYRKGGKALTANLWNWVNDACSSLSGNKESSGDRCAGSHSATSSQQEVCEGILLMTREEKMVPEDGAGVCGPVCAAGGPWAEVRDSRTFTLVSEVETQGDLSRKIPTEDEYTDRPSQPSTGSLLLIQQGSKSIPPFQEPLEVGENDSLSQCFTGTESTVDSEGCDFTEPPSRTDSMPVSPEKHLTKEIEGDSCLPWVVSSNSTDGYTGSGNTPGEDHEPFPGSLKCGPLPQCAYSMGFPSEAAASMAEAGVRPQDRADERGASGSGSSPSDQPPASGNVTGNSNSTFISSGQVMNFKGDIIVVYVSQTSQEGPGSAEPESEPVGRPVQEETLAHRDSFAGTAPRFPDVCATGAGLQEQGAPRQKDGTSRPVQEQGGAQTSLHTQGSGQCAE
Assay: confocal microscopy of primary murine osteoblasts exposed to 5 nM ligand, RANK stained with anti-RANK antibody
Experimental: Primary murine osteoblasts were maintained in α-MEM containing 10% fetal bovine serum, and cultured in MEM containing 15% FBS, 50 μM ascorbic acid, and 10 mM β-glycerophosphate for differentiation. Cells were maintained at 37° C. in a humidified atmosphere containing 6% CO₂, with daily replenishment of media and cytokines. Primary murine osteoblasts were cultured on coverslips in A-MEM containing 10% fetal bovine serum and treated with GST-RANKL or cleaved RANKL for the indicated times. For phospholipid membrane staining, cells were incubated for 20 minutes with Vybrant Dil lipophilic carbocyanine membrane fluorescent stain (Molecular Probes). Cells were fixed in 4% paraformaldehyde, permeabilized with 0.1% Triton-X, blocked with 1% BSA/0.2% nonfat dry milk in PBS, and stained for RANK with a polyclonal anti-RANK antibody. Serial optical sections were obtained using a Radiance2100 laser scanning confocal microscope (BioRad). Microscope settings were calibrated to black level values using cells stained with an isotypic Ig control. GST-RANKL was cleaved as described in Example 12.
Primary osteoblasts in culture were exposed to 5 nM cleaved RANKL or GST-RANKL. […] Confocal microscopy was employed to localize RANK (green fluorescence) and the cell surface (red fluorescence). On the merged images, colocalization of RANK and the cell surface appears yellow (overlap of green and red fluorescence). […]

Binder	binding result
B1	binds
B2	binds
